Assay results from patent US20220228157A1, “GENE EDITING IN DIVERSE BACTERIA” (priority 2019, published 2022).

How the values were obtained:
[1] = tested on: Citrobacter freundii ATCC 8090; experiment: Recombineering efficiency by LacZ screening; format: cell-based; details: pORTMAGE-based constructs
Source text: (§1) To test the activity of PapRecT and CspRecT in these three organisms, the broad-host-range pORTMAGE system (Nyerges et al., Proc. Natl. Acad. Sci. U.S.A. 113, 2502-2507 (2016)) was built on as described above. For experiments in E. coli PapRecT or CspRecT was subcloned in place of Redβ into pORTMAGE311B (Szili et al., Antimicrob. Agents Chemother. AAC.00207-19 (2019) doi:10.1128/AAC.00207-19) (FIGS. 10A-10B; Addgene accession: #120418), which transiently disrupts MMR with EcMutL_E32K, and whose RSF1010 origin of replication and m-toluic-acid-based expression system allows the plasmid to be deployed over a broad range of bacterial hosts (Honda et al., Proc. Natl. Acad. Sci. U.S.A. 88, 179-183 (1991); Gawin et al., Microb. Biotechnol. 10, 702 (2017)). These same pORTMAGE-based constructs were used for testing in C. freundii and K. pneumoniae. […]
(§2) Oligos were designed to introduce I) premature STOP codons into lacZ for E. coli, K. pneumoniae, and C. freundii, or II) RpsL K43→R; GyrA T83→I; ParC S83→L; RpoB D521→V, or a premature STOP codon into nfxB for P. aeruginosa. […] After recovery overnight, cells were plated at empirically-determined dilutions to a density of 200-500 colonies per plate. […] In all cases, allelic-replacement frequencies were calculated by dividing the number of recombinant CFUs by the number of total CFUs. […]

[2] = tested on: Klebsiella pneumoniae ATCC 10031; experiment: Recombineering efficiency by LacZ screening; format: cell-based; details: pORTMAGE-based constructs
Source text: as §1, §2

E. coli = experiment: Editing efficiency by NGS, non-coding mismatch at a non-essential gene; format: cell-based, Escherichia coli; details: silent mismatch MAGE oligo, SEER plasmid system
Description: Top-performing SSAPs and SSAP/SSB pairs from experiments in E. coli, L. lactis, and M. smegmatis are shown in FIG. 2A, FIG. 2B and FIG. 2C, respectively. Bars in red are the proteins that had previously been reported in the literature. The proteins listed were found after ten rounds of selection for protein variants that enabled the introduction of an oligonucleotide that conferred a genomic edit that provided antibiotic resistance. Unbiased editing efficiency was tested in each case by introducing a non-coding base change at a non-essential gene and measuring the frequency of incorporation via next generation sequencing.
Their recombineering efficiency was tested against Redβ expressed off of its wild-type codons on the same plasmid system used for the SEER selections. […]
The efficiency of each SSAP or SSAP/SSB pair was measured by expressing them off of their host-specific plasmid in the naïve parent strain and running a recombineering cycle with an oligo that confers a 4-nucleotide non-coding mismatch in a non-essential gene. The allele was then amplified by PCR and editing efficiency was measured by next-generation sequencing.
To measure single locus editing, a recombineering cycle was run with an oligo that confers a single base pair non-coding mismatch in a non-essential gene. The allele was then amplified by PCR and editing efficiency was measured by NGS as described above. […]

Molecule	Editing performance in C. freundii [1]	Editing performance in K. pneumoniae [2]	Efficiency of recombineering at ynfF by NGS (E. coli)
CspRecT: RecT SSAP (UniParc ID: UPI0001837D7F) from a phage of Collinsella stercoris (protein, Collinsella stercoris DSM 13279) MNQIVKFTDDSGLAVQVTPDDVRRYICENATEKEVGLFLQLCQTQRLNPFVKDAYLVKYGGAPASMITSYQVFNRRACRDANYDGIKSGVVVLRDGDVVHKRGAACYKKAGEELIGGWAEVRFKDGRETAYAEVALDDYSTGKSNWAKMPGVMIEKCAKAAAWRLAFPDTFQGMYAAEEMDQAQQPEQVRAQAEQPVDLQPIRELFKPYCEHFGITPAEGMTAVCGAVGAEGMHSMTEQQARRARAWMEEEMAAPAVEAEYEVVDEGEVF	optimal choice of protein	optimal choice of protein	
PapRecT: SSAP from Pseudomonas aeruginosa, SEQ ID NO: 24, UniParc ID: UPI0001E9E6CB (protein, listed as Pseudomonas aeruginosa) MGTALTPLLTKFATRYEMGTTPEEVANTLKQTCFKGQVNDSQMVALLIVADQYKLNPFTKELYAFPDKNNGIVPVVGVDGWARIINENPQFDGMEFSMDQQGTECTCKIYRKDRSHAISATEYMAECKRNTQPWQSHPRRMLRHKAMIQCARLAFGFAGIYDQDEAERIVERDVTPAEQYEDVSEAICLIKDSPTMEDLQAAFSNAWKAYKTKGARDQLTAAKDQRKKELLDAPIDVEFEETGDDRAA			31%±2%
